In patent publication US6133013A, “Truncated aspartase enzyme derivatives and uses thereof” (The University of Akron, priority 1999, dated 2000):

Substrate: N[C@@H](CC(=O)O)C(=O)O
Assay: Spectrophotometric aspartase assay, deamination of L-aspartic acid to fumarate (240 nm)
Format: biochemical, Escherichia coli
Settings: 30 mM Hepes pH 7.0, 10 mM magnesium acetate, 30° C.
Procedure: Catalytic activity was determined spectrophotometrically by measuring the formation of fumarate at 240 nm (E240 =2.53 mM^-1 cm^-1) produced by the enzyme-catalyzed deamination of aspartic acid. A standard assay mix contained 30 mM Hepes buffer, pH 7.0, 10 mM magnesium acetate, and varying concentrations of L-aspartic acid at 30° C.

B1: E. coli aspartase truncated variant R471stop, residues 1-470 of SEQ ID NO: 1 (Escherichia coli K-12) (protein)
chain: MSNNIRIEEDLLGTREVPADAYYGVHTLRAIENFYISNNKISDIPEFVRGMVMVKKAAAMANKELQTIPKSVANAIIAACDEVLNNGKCMDQFPVDVYQGGAGTSVNMNTNEVLANIGLELMGHQKGEYQYLNPNDHVNKCQSTNDAYPTGFRIAVYSSLIKLVDAINQLREGFERKAVEFQDILKMGRTQLQDAVPMTLGQEFRAFSILLKEEVKNIQRTAELLLEVNLGATAIGTGLNTPKEYSPLAVKKLAEVTGFPCVPAEDLIEATSDCGAYVMVHGALKRLAVKMSKICNDLRLLSSGPRAGLNEINLPELQAGSSIMPAKVNPVVPEVVNQVCFKVIGNDTTVTMAAEAGQLQLNVMEPVIGQAMFESVHILTNACYNLLEKCINGITANKEVCEGYVYNSIGIVTYLNPFIGHHNGDIVGKICAETGKSVREVVLERGLLTEAELDDIFSVQNLMHPAYKAK
notes: made in house; host or cells: E. coli overproducing strain
B1 gave a Km (other: R471stop) of 4.5 mM, a kcat (other: R471stop) of 1.18 ± 0.0483 s⁻¹ and a kcat/Km (other: R471stop) of 262 M⁻¹ s⁻¹.

B2: E. coli aspartase truncated variant A469stop, residues 1-468 of SEQ ID NO: 1 (Escherichia coli K-12) (protein)
chain: MSNNIRIEEDLLGTREVPADAYYGVHTLRAIENFYISNNKISDIPEFVRGMVMVKKAAAMANKELQTIPKSVANAIIAACDEVLNNGKCMDQFPVDVYQGGAGTSVNMNTNEVLANIGLELMGHQKGEYQYLNPNDHVNKCQSTNDAYPTGFRIAVYSSLIKLVDAINQLREGFERKAVEFQDILKMGRTQLQDAVPMTLGQEFRAFSILLKEEVKNIQRTAELLLEVNLGATAIGTGLNTPKEYSPLAVKKLAEVTGFPCVPAEDLIEATSDCGAYVMVHGALKRLAVKMSKICNDLRLLSSGPRAGLNEINLPELQAGSSIMPAKVNPVVPEVVNQVCFKVIGNDTTVTMAAEAGQLQLNVMEPVIGQAMFESVHILTNACYNLLEKCINGITANKEVCEGYVYNSIGIVTYLNPFIGHHNGDIVGKICAETGKSVREVVLERGLLTEAELDDIFSVQNLMHPAYK
notes: as for B1
For B2, the Km (other: A469stop) was 10.2 mM, the kcat (other: A469stop) was 0.66 ± 0.0167 s⁻¹ and the kcat/Km (other: A469stop) was 65 M⁻¹ s⁻¹.

B3: E. coli aspartase truncated variant D474stop, residues 1-473 of SEQ ID NO: 1 (Escherichia coli K-12) (protein)
chain: MSNNIRIEEDLLGTREVPADAYYGVHTLRAIENFYISNNKISDIPEFVRGMVMVKKAAAMANKELQTIPKSVANAIIAACDEVLNNGKCMDQFPVDVYQGGAGTSVNMNTNEVLANIGLELMGHQKGEYQYLNPNDHVNKCQSTNDAYPTGFRIAVYSSLIKLVDAINQLREGFERKAVEFQDILKMGRTQLQDAVPMTLGQEFRAFSILLKEEVKNIQRTAELLLEVNLGATAIGTGLNTPKEYSPLAVKKLAEVTGFPCVPAEDLIEATSDCGAYVMVHGALKRLAVKMSKICNDLRLLSSGPRAGLNEINLPELQAGSSIMPAKVNPVVPEVVNQVCFKVIGNDTTVTMAAEAGQLQLNVMEPVIGQAMFESVHILTNACYNLLEKCINGITANKEVCEGYVYNSIGIVTYLNPFIGHHNGDIVGKICAETGKSVREVVLERGLLTEAELDDIFSVQNLMHPAYKAKRYT
notes: as for B1
Work on B3 yielded a Km (other: D474stop) of 2.8 mM, a kcat (other: D474stop) of 0.712 ± 0.127 s⁻¹ and a kcat/Km (other: D474stop) of 255 M⁻¹ s⁻¹.

B4: E. coli aspartase truncated variant Y467stop (stop codon at position 467) (Escherichia coli K-12; E32V) (protein)
chain: MSNNIRIEEDLLGTREVPADAYYGVHTLRAIVNFYISNNKISDIPEFVRGMVMVKKAAAMANKELQTIPKSVANAIIAACDEVLNNGKCMDQFPVDVYQGGAGTSVNMNTNEVLANIGLELMGHQKGEYQYLNPNDHVNKCQSTNDAYPTGFRIAVYSSLIKLVDAINQLREGFERKAVEFQDILKMGRTQLQDAVPMTLGQEFRAFSILLKEEVKNIQRTAELLLEVNLGATAIGTGLNTPKEYSPLAVKKLAEVTGFPCVPAEDLIEATSDCGAYVMVHGALKRLAVKMSKICNDLRLLSSGPRAGLNEINLPELQAGSSIMPAKVNPVVPEVVNQVCFKVIGNDTTVTMAAEAGQLQLNVMEPVIGQAMFESVHILTNACYNLLEKCINGITANKEVCEGYVYNSIGIVTYLNPFIGHHNGDIVGKICAETGKSVREVVLERGLLTEAELDDIFSVQNLMHPA
notes: made in house; host or cells: E. coli (aspA in pTZ18R)
With B4 the Km (other: Y467stop) was 31 mM, the kcat (other: Y467stop) was 0.0417 ± 0.013 s⁻¹ and the kcat/Km (other: Y467stop) was 1.33 M⁻¹ s⁻¹.

B5: E. coli aspartase truncated variant Y472stop, residues 1-471 of SEQ ID NO: 1 (Escherichia coli K-12) (protein)
chain: MSNNIRIEEDLLGTREVPADAYYGVHTLRAIENFYISNNKISDIPEFVRGMVMVKKAAAMANKELQTIPKSVANAIIAACDEVLNNGKCMDQFPVDVYQGGAGTSVNMNTNEVLANIGLELMGHQKGEYQYLNPNDHVNKCQSTNDAYPTGFRIAVYSSLIKLVDAINQLREGFERKAVEFQDILKMGRTQLQDAVPMTLGQEFRAFSILLKEEVKNIQRTAELLLEVNLGATAIGTGLNTPKEYSPLAVKKLAEVTGFPCVPAEDLIEATSDCGAYVMVHGALKRLAVKMSKICNDLRLLSSGPRAGLNEINLPELQAGSSIMPAKVNPVVPEVVNQVCFKVIGNDTTVTMAAEAGQLQLNVMEPVIGQAMFESVHILTNACYNLLEKCINGITANKEVCEGYVYNSIGIVTYLNPFIGHHNGDIVGKICAETGKSVREVVLERGLLTEAELDDIFSVQNLMHPAYKAKR
notes: as for B1
Work on B5 yielded a Km (other: Y472stop) of 3.3 mM, a kcat (other: Y472stop) of 1.62 ± 0.102 s⁻¹ and a kcat/Km (other: Y472stop) of 492 M⁻¹ s⁻¹.

B6: E. coli aspartase (L-aspartate ammonia-lyase, E.C. 4.3.1.1), wild-type, SEQ ID NO: 1 (Escherichia coli K-12) (protein)
chain: MSNNIRIEEDLLGTREVPADAYYGVHTLRAIENFYISNNKISDIPEFVRGMVMVKKAAAMANKELQTIPKSVANAIIAACDEVLNNGKCMDQFPVDVYQGGAGTSVNMNTNEVLANIGLELMGHQKGEYQYLNPNDHVNKCQSTNDAYPTGFRIAVYSSLIKLVDAINQLREGFERKAVEFQDILKMGRTQLQDAVPMTLGQEFRAFSILLKEEVKNIQRTAELLLEVNLGATAIGTGLNTPKEYSPLAVKKLAEVTGFPCVPAEDLIEATSDCGAYVMVHGALKRLAVKMSKICNDLRLLSSGPRAGLNEINLPELQAGSSIMPAKVNPVVPEVVNQVCFKVIGNDTTVTMAAEAGQLQLNVMEPVIGQAMFESVHILTNACYNLLEKCINGITANKEVCEGYVYNSIGIVTYLNPFIGHHNGDIVGKICAETGKSVREVVLERGLLTEAELDDIFSVQNLMHPAYKAKRYTDESEQ
notes: made in house; host or cells: E. coli overproducing strain (aspA in pTZ18R)
For B6, the Km (other: wild-type) was 1.8 mM.
